Data as given in publication PMC12312913 (2025).

T1: J protein (bacteriophage, UniProt P0DXX7)
T1 chain: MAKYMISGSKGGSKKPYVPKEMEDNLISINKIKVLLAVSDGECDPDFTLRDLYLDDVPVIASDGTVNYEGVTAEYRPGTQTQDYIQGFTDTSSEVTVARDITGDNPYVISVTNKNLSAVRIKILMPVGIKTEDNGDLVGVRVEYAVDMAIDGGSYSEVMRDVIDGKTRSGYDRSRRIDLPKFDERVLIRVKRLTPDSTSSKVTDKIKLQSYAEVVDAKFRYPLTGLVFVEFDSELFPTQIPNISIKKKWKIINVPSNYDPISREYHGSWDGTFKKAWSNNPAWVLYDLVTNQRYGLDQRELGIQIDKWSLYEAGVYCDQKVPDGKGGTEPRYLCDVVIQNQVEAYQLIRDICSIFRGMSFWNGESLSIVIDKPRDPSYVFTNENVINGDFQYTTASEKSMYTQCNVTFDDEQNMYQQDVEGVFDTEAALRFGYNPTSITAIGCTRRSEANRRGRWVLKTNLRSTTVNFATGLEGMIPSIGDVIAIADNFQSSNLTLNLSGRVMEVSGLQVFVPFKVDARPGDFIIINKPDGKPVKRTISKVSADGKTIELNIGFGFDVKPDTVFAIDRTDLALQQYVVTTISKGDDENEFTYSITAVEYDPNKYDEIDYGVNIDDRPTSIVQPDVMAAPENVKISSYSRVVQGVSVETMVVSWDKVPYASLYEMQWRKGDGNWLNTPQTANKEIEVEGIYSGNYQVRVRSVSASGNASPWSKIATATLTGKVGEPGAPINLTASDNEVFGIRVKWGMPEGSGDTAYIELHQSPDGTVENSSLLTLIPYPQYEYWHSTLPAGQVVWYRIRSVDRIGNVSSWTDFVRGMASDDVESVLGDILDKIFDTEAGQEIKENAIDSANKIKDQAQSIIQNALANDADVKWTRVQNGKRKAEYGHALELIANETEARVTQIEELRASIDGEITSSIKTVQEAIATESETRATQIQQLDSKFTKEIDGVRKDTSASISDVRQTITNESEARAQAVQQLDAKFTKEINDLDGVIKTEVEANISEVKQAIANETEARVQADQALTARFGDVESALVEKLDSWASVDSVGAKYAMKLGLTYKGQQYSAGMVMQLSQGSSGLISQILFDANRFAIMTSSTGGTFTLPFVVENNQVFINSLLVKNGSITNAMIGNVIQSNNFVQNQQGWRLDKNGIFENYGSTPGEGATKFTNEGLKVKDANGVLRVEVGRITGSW

B1: BtuB (protein)
chain: QDTSPDTLVVTANRFQQPRSAVLAPVTIVTRQDIERWQSTSVNDVLRRLPGVDIAQSGGAGQNSSIFIRGTNSSHVLVLIDGVRLNLAGVSGSADLSQFPVSLVQRIEYIRGPRSAIYGSDAIGGVVNIITTRDNPGTELTAGWGSNSYQNYDISTQQQLGENTRATLIGDYEYTKGFDVVAKGGTGMQAQPDRDGFLSKTLYGALEHTFSDRWSGFVRGYGYDNRTDYDAYYSPGSPLIDTRKLYSQSWDAGLRFNGERIQSQLVSSYSHSKDYNYDPHYGRYDTSATLDEMKQYNVQWTNSVVVGHGNVGAGVDWQKQTTTPGTGYVPEGYDQRNTGVYLTGLQQLGDFTLEAAARSDDNSQFGRHGTWQTSAGWEFIEGYRFIASYGTSYKAPNLGQLYGYYGNPNLNPEKSKQWEGAFEGLTAGVSWRISGYRNDINDMIDYDDHLQKYYNEGKARIKGIEATANFDTGPLTHTVSYDYVDARNAITDTPLPRRSKQMAKYQLDWDVYDFDWGVTYQYLGSRYDSDYSAYPYRTVKMGGVSLWDLTVAYPVTSHLTVRGKIANLFDKDYETVYGYQTAGREYTLSGSYTF
B2: OmpX fused to TF and His tag (receptor)
chain: MKKIACLSALAAVLAFSAGTAVAATSTVTGGYAQSDAQGVANKMSGFNLKYRYEQDDNPLGVIGSFTYTEKDRTNGAGDYNKGQYYGITAGPAYRLNDWASIYGVVGVGYGKFQTTDYPTYKHDTSDYGFSYGAGLQFNPMENVALDFSYEQSRIRSVDVGTWIAGVGYRF
B3: OmpX (protein)
chain: ATSTVTGGYAQSDAQGQMNKMGGFNLKYRYEEDNSPLGVIGSFTYTEKSRTASSGDYNKNQYYGITAGPAYRINDWASIYGVVGVGYGKFQTTEYPTYKHDTSDYGFSYGAGLQFNPMENVALDFSYEQSRIRSVDVGTWIAGVGYRF

Assays:
J protein = biological target: T1, J protein; test: BLI
[1] = biological target: Gifsy-1 central tail tip J protein with Flag tag (phage Gifsy-1 of Salmonella Typhimurium); test: BLI

Binder	Kd (J protein)	koff [1]
B1	0.00597 nM	
B2		0.000275 s⁻¹
B3	70 nM	
